Data on five molecules can be found in paper PMC12140327, “Structural and Biochemical Characterization of a Widespread Enterobacterial Peroxidase Encapsulin” (Advanced Science, 2025).

Where “and” joins values, the source holds several entries; their conditions need not be identical. Equal values may be shown once.

The target in experiment [1] is encapsulin shell protein (Enc) of the enterobacterial DyP encapsulin operon (E. coli). Description: cryo-EM structure; purified EncDyP from staggered co-expression, 2.8 mg/mL in 150 mM NaCl, 20 mM Tris pH 7.5; icosahedral symmetry imposed.
Experiment [2] has as its target T1, EncDyP (Escherichia coli, UniProt A0A5C9AJY8).
T1 construct: gene FPI65_30880; DyP-loaded T=1 encapsulin shell (60 Enc, about 3-5 DyP hexamers per shell); staggered co-expression in E. coli BL21(DE3), DyP in pCDFDuet-1, Enc in pBAD/HisA; no tag stated; DyP C-terminal residue K348; with Type 1 encapsulin shell protein
Description: in-gel peroxidase activity stain (native PAGE, ferricyanide). The class given is biochemical. The following applies: H2O2 0.003%; DAB in Tris-saline pH 7.5.

For experiment [3], the target named is T1, EncDyP. Description: ABTS oxidation at […] nm, plate reader. The following applies: H2O2 as co-substrate; 50 mM phosphate citrate pH 4.6-7.6; room temperature. The class given is biochemical.
Experiment [4] deals with encapsulin shell protein (Enc) of the enterobacterial DyP encapsulin operon (E. coli). Description: cryo-EM 2D class averages after shell subtraction; purified EncDyP from a two-gene operon under the T7 promoter.
For experiment [5] the target is unchanged. The experiment is described as follows: cryo-EM 2D class averages after shell subtraction; purified EncDyP from staggered expression of DyP (PT7) and Enc (PBAD).
Experiment [6] has as its target free His6-tagged Dye-decolorizing peroxidase (DyP). The experiment is described as follows: SEC; Superdex S-200, 150 mM NaCl, 20 mM Tris pH 7.5; heme followed by absorption at 404 nm. In general terms: In gel filtration, larger molecules generally elute earlier.
Experiment [7] has the same target. Description: cryo-EM structure; purified free DyP, 0.5 mg/mL in 150 mM NaCl, 20 mM Tris pH 7.5; D3 symmetry imposed.

For orientation: stoichiometry N means the number of molecules, sites or subunits per partner or assembly. In turn, “encapsulin shell protein (Enc) of the enterobacterial DyP encapsulin operon (natural protein)” displayed a stoichiometry N in experiment [1] of 60.
`Nc1ccc(-c2ccc(N)c(N)c2)cc1N` [DAB]: the “in-gel peroxidase activity stain (native PAGE, ferricyanide)” value at EncDyP [2] is “in‐gel peroxidase activity staining using ferricyanide which confirmed the encapsulation of catalytically active DyP”.
As for `CCn1c(=NN=c2sc3cc(S(=O)(=O)O)ccc3n2CC)sc2cc(S(=O)(=O)O)ccc21` [ABTS], the “ABTS oxidation at 420 nm, plate reader” value on EncDyP [3] is “Peroxidase activity increased at a comparable rate for both free and encapsulated DyP”.
For “Dye-decolorizing peroxidase (DyP) cargo, co-expressed with Enc and encapsulated (enzyme)”, the DyP hexamers per shell (hexamer per shell) in experiment [4] is less than 1. Further, the DyP hexamers per shell (DyP hexamers per shell) in experiment [5] was 3 and 5.
As for “free His6-tagged Dye-decolorizing peroxidase (DyP) (enzyme)”, the stoichiometry N in experiment [6] and in experiment [7] was 6 throughout.
